Measurements from US20110123543A1.

Assays:
[1] = biological target: recombinant mouse TNFα (mouse) (UniProt P06804); assay: cell-based or functional assay
[2] = biological target: recombinant human TNFα (rhTNF, Dainippon, Osaka, Japan) (human) (UniProt P01375); assay: Scatchard analysis; direct binding of 125I-labelled antibody to rhTNFα immobilized in a 96-well plate
Sequence of UniProt P01375 (P01375 77-233 limits assumed): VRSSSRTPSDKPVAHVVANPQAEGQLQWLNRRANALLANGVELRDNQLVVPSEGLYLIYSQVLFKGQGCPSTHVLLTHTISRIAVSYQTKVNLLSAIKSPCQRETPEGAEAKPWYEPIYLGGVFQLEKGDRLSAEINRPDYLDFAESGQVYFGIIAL

Sequence of UniProt P06804 (P06804 80-235 limits assumed): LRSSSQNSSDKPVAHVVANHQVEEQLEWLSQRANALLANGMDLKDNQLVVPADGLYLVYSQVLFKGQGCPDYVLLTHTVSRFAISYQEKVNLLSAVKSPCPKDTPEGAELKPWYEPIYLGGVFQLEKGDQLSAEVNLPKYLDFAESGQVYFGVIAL

Row | Substance | neutralizing titre: concentration required to cause 50% inhibition of killing of WEHI 164 cells by trimeric recombinant murine TNFα (60 pg/ml mouse TNFα) [1] | Ka [2]
1 | TN3-19.12, neutralizing hamster IgG1 anti-TNFα/β monoclonal antibody | 62 ng/mL | –
2 | TNF receptor/IgG fusion protein p55-sf2 (from UniProt P19438 30-211; P01857 1-330) (Fc fusion) | 0.6 ng/mL | –
3 | chimeric A2 (cA2), chimeric monoclonal anti-TNF antibody | – | 1.8e+09 M⁻¹
